Ends that are not written are not given here.
B1: artificial receptor No. 22 (n=2): peptide building blocks RY MY (designed binder)
peptide 1: Ac-KAGAGRGY-NHMe
peptide 2: Ac-KAGAGMGY-NHMe
B2: artificial receptor No. 56 (n=3): peptide building blocks RM QH MY (designed binder)
peptide 1: Ac-KAGAGRGM-NHMe
peptide 2: Ac-KAGAGQGH-NHMe
peptide 3: Ac-KAGAGMGY-NHMe
B3: artificial receptor No. 50 (n=3): peptide building blocks RM RY MY (designed binder)
peptide 1: KAGAGRGM-NHMe
peptide 2: Ac-KAGAGRGY-NHMe
peptide 3: Ac-KAGAGMGY-NHMe
modifications: not fully specified (N-terminus)
B4: artificial receptor No. 70 (n=3): peptide building blocks RM HM DD (designed binder)
peptide 1: KAGAGRGM-NHMe
peptide 2: Ac-KAGAGHGM-NHMe
peptide 3: Ac-KAGAGDGD-NHMe
modifications: not fully specified (N-terminus)
B5: artificial receptor No. 40 (n=2): peptide building blocks HM MY (designed binder)
peptide 1: Ac-KAGAGHGM-NHMe
peptide 2: Ac-KAGAGMGY-NHMe
B6: artificial receptor No. 133 (n=4): peptide building blocks RM RY QH MY (designed binder)
peptide 1: KAGAGRGM-NHMe
peptide 2: Ac-KAGAGRGY-NHMe
peptide 3: Ac-KAGAGQGH-NHMe
peptide 4: Ac-KAGAGMGY-NHMe
modifications: not fully specified (N-terminus)
B7: artificial receptor No. 93 (n=3): peptide building blocks RY MY DD (designed binder)
peptide 1: Ac-KAGAGRGY-NHMe
peptide 2: Ac-KAGAGMGY-NHMe
peptide 3: Ac-KAGAGDGD-NHMe
B8: artificial receptor No. 71 (n=3): peptide building blocks RM MY TY (designed binder)
peptide 1: KAGAGRGM-NHMe
peptide 2: Ac-KAGAGMGY-NHMe
peptide 3: Ac-KAGAGTGY-NHMe
modifications: not fully specified (N-terminus)
B9: artificial receptor No. 69 (n=3): peptide building blocks RM HM TY (designed binder)
peptide 1: KAGAGRGM-NHMe
peptide 2: Ac-KAGAGHGM-NHMe
peptide 3: Ac-KAGAGTGY-NHMe
modifications: not fully specified (N-terminus)
B10: artificial receptor No. 46 (n=3): peptide building blocks RM RY QH (designed binder)
peptide 1: KAGAGRGM-NHMe
peptide 2: Ac-KAGAGRGY-NHMe
peptide 3: Ac-KAGAGQGH-NHMe
modifications: not fully specified (N-terminus)
B11: artificial receptor No. 72 (n=3): peptide building blocks RM MY DD (designed binder)
peptide 1: KAGAGRGM-NHMe
peptide 2: Ac-KAGAGMGY-NHMe
peptide 3: Ac-KAGAGDGD-NHMe
modifications: not fully specified (N-terminus)
B12: artificial receptor No. 89 (n=3): peptide building blocks RY HM MY (designed binder)
peptide 1: Ac-KAGAGRGY-NHMe
peptide 2: Ac-KAGAGHGM-NHMe
peptide 3: Ac-KAGAGMGY-NHMe
B13: artificial receptor No. 15 (n=2): peptide building blocks RM MY (designed binder)
peptide 1: Ac-KAGAGRGM-NHMe
peptide 2: Ac-KAGAGMGY-NHMe
B14: artificial receptor No. 65 (n=3): peptide building blocks RM QY MY (designed binder)
peptide 1: KAGAGRGM-NHMe
peptide 2: Ac-KAGAGQGY-NHMe
peptide 3: Ac-KAGAGMGY-NHMe
modifications: not fully specified (N-terminus)
B15: artificial receptor No. 278 (n=5): peptide building blocks RM RY QM MY TY (designed binder)
peptide 1: KAGAGRGM
peptide 2: KAGAGRGY
peptide 3: KAGAGQGM
peptide 4: KAGAGMGY
peptide 5: KAGAGTGY
modifications: not fully specified; N-terminal acetyl (Ac-HN-); C-terminal methyl amide (-C(O)-NH-CH3)
B16: artificial receptor No. 68 (n=3): peptide building blocks RM HM MY (designed binder)
peptide 1: KAGAGRGM-NHMe
peptide 2: Ac-KAGAGHGM-NHMe
peptide 3: Ac-KAGAGMGY-NHMe
modifications: not fully specified (N-terminus)
B17: artificial receptor No. 10 (n=2): peptide building blocks RM TY (designed binder)
peptide 1: KAGAGRGM-NHMe
peptide 2: Ac-KAGAGTGY-NHMe
modifications: not fully specified (N-terminus)
B18: artificial receptor No. 61 (n=3): peptide building blocks RM QM MY (designed binder)
peptide 1: Ac-KAGAGRGM-NHMe
peptide 2: Ac-KAGAGQGM-NHMe
peptide 3: Ac-KAGAGMGY-NHMe
B19: artificial receptor No. 49 (n=3): peptide building blocks RM RY HM (designed binder)
peptide 1: KAGAGRGM-NHMe
peptide 2: Ac-KAGAGRGY-NHMe
peptide 3: Ac-KAGAGHGM-NHMe
modifications: not fully specified (N-terminus)

Columns and labels:
[1] = tested on: Anti-FLAG® M2 monoclonal antibody; conditions: cited from earlier work
[2] = tested on: Anti-FLAG® M2 monoclonal antibody; type: binding
[3] = biological target: fluorescently labeled Anti-FLAG® M2 monoclonal antibody (Sigma); experiment: fluorescence microarray: peptides immobilized on epoxide slide, probed with fluorescently labeled antibody

| Molecule | Mean Fluorescence Units (fluorescence units) [3] | further results |
| --- | --- | --- |
| ASP-TYR-LYS-ASP-ASP-ASP-ASP-LYS [FLAG® peptide] |  | binding by the commercially available antibody [1]: bound |
| MET-ASP-TYR-LYS-ASP-HIS-ASP-GLY-ASP-TYR-LYS-ASP-HIS-ASP-ILE-ASP-TYR-LYS-ASP-ASP-ASP-ASP-LYS [3×FLAG® peptide] |  | binding of anti-FLAG Mab in the microarray (fluorescence) [2]: bound |
| B1 | 53500 |  |
| B2 | 32600 |  |
| B3 | 54400 |  |
| B4 | 32500 |  |
| B5 | 46800 |  |
| B6 | 47600 |  |
| B7 | 46700 |  |
| B8 | 47800 |  |
| B9 | 39800 |  |
| B10 | 39500 |  |
| B11 | 52100 |  |
| KAGAGMGY-NHMe (not fully specified (N-terminus)) [artificial receptor No. 7 (n=1): peptide building block MY] | 64600 |  |
| B12 | 57200 |  |
| B13 | 64600 |  |
| KAGAGRGM-NHMe (not fully specified (N-terminus)) [artificial receptor No. 1 (n=1): peptide building block RM] | 47700 |  |
| B14 | 40900 |  |
| B15 | 65000 |  |
| B16 | 34500 |  |
| B17 | 35100 |  |
| B18 | 47800 |  |
| B19 | 39800 |  |
